We go through 19 molecules from US7183387 (Genentech, dated 2007).

Assay [1] addresses T1, human FcγRIIB α subunit extracellular domain-His6-GST fusion (human, UniProt P31994 43-217).
T1 construct: extracellular domain; also called CD32; not shown: glutathione S transferase (GST)
T1 sequence: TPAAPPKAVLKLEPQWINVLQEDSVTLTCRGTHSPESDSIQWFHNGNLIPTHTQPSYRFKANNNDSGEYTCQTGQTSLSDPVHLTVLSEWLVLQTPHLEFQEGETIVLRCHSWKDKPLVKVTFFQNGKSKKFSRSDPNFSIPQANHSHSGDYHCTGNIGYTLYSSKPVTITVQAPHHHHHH
As to the kind of experiment: hexamer ELISA. A general note: An ELISA detects its analyte on a solid surface through an enzyme-linked reagent.

Assay [2] concerns the target T2, human FcγRIIA-Arg131 α subunit extracellular domain-His6-GST fusion (human, UniProt P12318 34-217).
T2 construct: extracellular domain; also called FcγRIIA-R131; not shown: glutathione S transferase (GST)
T2 sequence: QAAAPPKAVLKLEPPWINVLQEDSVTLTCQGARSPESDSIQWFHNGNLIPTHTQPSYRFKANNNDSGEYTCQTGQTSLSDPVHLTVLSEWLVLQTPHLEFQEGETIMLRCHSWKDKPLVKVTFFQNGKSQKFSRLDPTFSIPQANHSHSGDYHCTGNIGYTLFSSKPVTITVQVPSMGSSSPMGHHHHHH
As to the kind of experiment: hexamer ELISA.

For assay [3], the target named is T3, human FcγRIIIA-Phe158 α subunit extracellular domain-His6-GST fusion (human, UniProt P08637 17-208).
T3 construct: extracellular domain; also called FcγRIIIA-F158; CD16; not shown: glutathione S transferase (GST)
In words: hexamer ELISA.

Assay [4] deals with T4, human neonatal Fc receptor (FcRn), biotinylated (human, UniProt P55899 24-297; P61769 21-119, biotinylated (biotin-X-NHS)).
T4 construct: captured on streptavidin plates
In words: FcRn ELISA, pH 6.0.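 Note: Streptavidin-captured FcRn plates, IgG variants titrated 2 h at pH 6.0, peroxidase anti-human IgG read at 450 nm, variant over standard concentration at the standard curve mid-point absorbance.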

For assay [5], the target named is T5, human FcγRIA α subunit extracellular domain-His6-GST fusion (human, UniProt P12314 16-292).
T5 construct: extracellular domain; also called GST-FcγRIA; CD64; not shown: glutathione S transferase (GST)
As to the kind of experiment: FcγRI ELISA and THP-1 cells, averaged.

T3 sequence (P08637 other isoform, or with tags, fused parts or gaps): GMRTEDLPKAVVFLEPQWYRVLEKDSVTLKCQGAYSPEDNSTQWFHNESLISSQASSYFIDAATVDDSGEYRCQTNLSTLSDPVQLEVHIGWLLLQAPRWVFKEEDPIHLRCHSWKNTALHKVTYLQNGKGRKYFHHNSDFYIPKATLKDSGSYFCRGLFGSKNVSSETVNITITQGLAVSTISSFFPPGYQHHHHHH
T5 sequence (P12314 other isoform, or with tags, fused parts or gaps): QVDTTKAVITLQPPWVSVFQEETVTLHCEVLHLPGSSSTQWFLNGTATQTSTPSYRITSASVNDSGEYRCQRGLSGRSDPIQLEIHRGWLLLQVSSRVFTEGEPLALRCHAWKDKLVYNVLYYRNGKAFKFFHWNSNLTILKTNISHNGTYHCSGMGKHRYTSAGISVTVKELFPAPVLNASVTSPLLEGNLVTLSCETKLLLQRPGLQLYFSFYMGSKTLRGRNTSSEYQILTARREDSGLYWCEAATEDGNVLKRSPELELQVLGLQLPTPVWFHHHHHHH
T4 sequence (P55899 24-297 limits assumed, chain 1 of 2): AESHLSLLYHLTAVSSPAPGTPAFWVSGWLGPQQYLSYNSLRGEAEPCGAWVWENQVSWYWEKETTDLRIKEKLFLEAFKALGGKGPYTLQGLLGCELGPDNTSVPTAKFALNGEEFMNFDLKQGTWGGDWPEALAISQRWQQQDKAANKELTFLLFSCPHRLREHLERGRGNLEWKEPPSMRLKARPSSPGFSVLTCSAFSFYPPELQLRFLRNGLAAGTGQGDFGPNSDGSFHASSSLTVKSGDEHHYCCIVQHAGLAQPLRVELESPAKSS
T4 sequence (P61769 21-119 limits assumed, chain 2 of 2): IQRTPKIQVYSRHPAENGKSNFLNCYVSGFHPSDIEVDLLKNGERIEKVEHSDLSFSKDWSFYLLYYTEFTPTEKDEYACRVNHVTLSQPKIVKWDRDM

B1: anti-IgE E27 IgG1 Asn276Ala (antibody)
heavy: not shown
light: DIQLTQSPSSLSASVGDRVTITCRASKPVDGEGDSYLNWYQQKPGKAPKLLIYAASYLESGVPSRFSGSGSGTDFTLTISSLQPEDFATYYCQQSHEDPYTFGQGTKVEIKRTVAAPSVFIFPPSDEQLKSGTASVVCLLNNFYPREAKVQWKVDNALQSGNSQESVTEQDSKDSTYSLSSTLTLSKADYEKHKVYACEVTHQGLSSPVTKSFNRGEC
Regarding B1, the “ratio to native IgG1” value in assay [1] came to 1.34 ratio; in assay [2] it was 1.29 ratio; in assay [3] it was 0.95 ratio; in assay [4] it was 1.15 ratio; in assay [5], 1.05 ratio.

B2: anti-IgE E27 IgG1 Asp265Ala (antibody)
heavy: not shown
light: B1 light
notes: also called G14 D265A
For B2, the “ratio to native IgG1” value stood at 0.13 ratio in assay [1]; 0.07 ratio in assay [2]; 0.09 ratio in assay [3]; 1.23 ratio in assay [4]; 0.16 ratio in assay [5].

B3: anti-IgE E27 IgG1 Glu382Ala (antibody)
heavy: not shown
light: B1 light
On to B3, for which the “ratio to native IgG1” value in assay [1] was determined as 0.84 ratio; in assay [2], 0.95 ratio; in assay [3], 0.76 ratio; in assay [4] it was 1.51 ratio; in assay [5], 1.06 ratio.

B4: anti-IgE E27 IgG1 Glu430Ala (antibody)
heavy: not shown
light: B1 light
Consider B4, for which the “ratio to native IgG1” value in assay [1] was determined as 1.28 ratio; in assay [2], 1.24 ratio; in assay [3], 1.2 ratio; in assay [4], 0.93 ratio; in assay [5], 1.05 ratio.

B5: anti-IgE E27 IgG1 Asn315Ala (antibody)
heavy: not shown
light: B1 light
B5: the “ratio to native IgG1” value came to 1.3 ratio in assay [1]; 1.15 ratio in assay [2]; 1.07 ratio in assay [3]; 0.76 ratio in assay [4]; 0.99 ratio in assay [5].

B6: anti-IgE E27 IgG1 Glu333Ala (antibody)
heavy: not shown
light: B1 light
notes: also called G54 E333A
Turning to B6, the “ratio to native IgG1” value amounted to 0.76 ratio in assay [1]; 0.92 ratio in assay [2]; 1.27 ratio in assay [3]; 1.03 ratio in assay [4]; 0.98 ratio in assay [5].

B7: anti-IgE E27 IgG1 His433Ala (antibody)
heavy: not shown
light: B1 light
With B7, the “ratio to native IgG1” value in assay [1] was 0.79 ratio; in assay [2] it was 0.92 ratio; in assay [3], 1.02 ratio; in assay [4], 0.41 ratio; in assay [5] it was 0.98 ratio.

B8: anti-IgE E27 IgG1 Asn286Ala (antibody)
heavy: not shown
light: B1 light
For the molecule B8, the “ratio to native IgG1” value is 1.36 ratio in assay [1]; 1.24 ratio in assay [2]; 1.05 ratio in assay [3]; 1.24 ratio in assay [4]; 0.95 ratio in assay [5].

B9: anti-IgE E27 IgG1 Gln295Ala (antibody)
heavy: not shown
light: B1 light
notes: also called Q295(312)A
Regarding B9, the “ratio to native IgG1” value in assay [1] was 0.5 ratio; in assay [2], 0.62 ratio; in assay [3] it was 0.25 ratio; in assay [4], 0.79 ratio; in assay [5], 1 ratio.

B10: anti-IgE E27 IgG1 Asp312Ala (antibody)
heavy: not shown
light: B1 light
For the molecule B10, the “ratio to native IgG1” value in assay [1] stood at 1.19 ratio; in assay [2] it was 1.2 ratio; in assay [3], 1.23 ratio; in assay [4], 1.5 ratio; in assay [5], 1.01 ratio.

B11: anti-IgE E27 IgG1 Asp376Ala (antibody)
heavy: not shown
light: B1 light
As to B11, the “ratio to native IgG1” value in assay [1] came out at 0.68 ratio; in assay [2] it was 0.8 ratio; in assay [3], 0.55 ratio; in assay [4], 1.45 ratio; in assay [5], 1 ratio.

B12: anti-IgE E27 IgG1 Glu258Ala (antibody)
heavy: not shown
light: B1 light
For B12, the “ratio to native IgG1” value in assay [1] worked out at 1.65 ratio; in assay [2] it was 1.33 ratio; in assay [3], 1.12 ratio; in assay [4], 1.18 ratio; in assay [5], 1.18 ratio.

B13: anti-IgE E27 IgG1 Gln311Ala (antibody)
heavy: not shown
light: B1 light
Regarding B13, the “ratio to native IgG1” value in assay [1] is 1.19 ratio; in assay [2], 1.11 ratio; in assay [3] it was 0.92 ratio; in assay [4] it was 1.62 ratio; in assay [5], 0.93 ratio.

B14: anti-IgE E27 IgG1 Glu269Ala (antibody)
heavy: not shown
light: B1 light
notes: also called E269(282)A
As to B14, the “ratio to native IgG1” value in assay [1] came to 0.75 ratio; in assay [2], 0.65 ratio; in assay [3], 0.45 ratio; in assay [4] it was 1.05 ratio; in assay [5], 0.61 ratio.

B15: anti-IgE E27 IgG1 Asp280Ala (antibody)
heavy: not shown
light: B1 light
As for B15, the “ratio to native IgG1” value in assay [1] was 1.6 ratio; in assay [2] it was 1.34 ratio; in assay [3] it was 1.09 ratio; in assay [4] it was 0.82 ratio; in assay [5], 1.04 ratio.

B16: anti-IgE E27 IgG1 His285Ala (antibody)
heavy: not shown
light: B1 light
Turning to B16, the “ratio to native IgG1” value in assay [1] worked out at 1.23 ratio; in assay [2], 1.26 ratio; in assay [3], 0.87 ratio; in assay [4] it was 0.85 ratio; in assay [5], 0.96 ratio.

B17: anti-IgE E27 IgG1 Gln362Ala (antibody)
heavy: not shown
light: B1 light
notes: also called Gln362A1a
As to B17, the “ratio to native IgG1” value came to 1.02 ratio in assay [1]; 1.03 ratio in assay [2]; 1.02 ratio in assay [3]; 1.25 ratio in assay [4]; 1 ratio in assay [5].

B18: anti-IgE E27 IgG1 His268Ala (antibody)
heavy: not shown
light: B1 light
notes: also called H281A (268 in EU numbering); G16 H268A
As to B18, the “ratio to native IgG1” value in assay [1] was 1.44 ratio; in assay [2], 1.21 ratio; in assay [3] it was 0.54 ratio; in assay [4], 1.02 ratio; in assay [5], 1.09 ratio.

B19: anti-IgE E27 IgG1 Glu272Ala (antibody)
heavy: not shown
light: B1 light
For B19, the “ratio to native IgG1” value was 1.53 ratio in assay [1]; 1.23 ratio in assay [2]; 0.8 ratio in assay [3]; 1.34 ratio in assay [4]; 1.05 ratio in assay [5].
